Where a chain is given by its changes, count along the chain named. In names and notes the source's numbering stands.
How the values were obtained:
human factor H [1] = molecular target: T1, human factor H (human, UniProt P08603 19-1231); assay: SPR
T1 construct: Immobilised on the chip in the SPR experiments; also called fH

human factor H [2] = molecular target: T1, human factor H; assay: SPR against immobilised fH

T1 sequence (P08603 19-1231 limits assumed): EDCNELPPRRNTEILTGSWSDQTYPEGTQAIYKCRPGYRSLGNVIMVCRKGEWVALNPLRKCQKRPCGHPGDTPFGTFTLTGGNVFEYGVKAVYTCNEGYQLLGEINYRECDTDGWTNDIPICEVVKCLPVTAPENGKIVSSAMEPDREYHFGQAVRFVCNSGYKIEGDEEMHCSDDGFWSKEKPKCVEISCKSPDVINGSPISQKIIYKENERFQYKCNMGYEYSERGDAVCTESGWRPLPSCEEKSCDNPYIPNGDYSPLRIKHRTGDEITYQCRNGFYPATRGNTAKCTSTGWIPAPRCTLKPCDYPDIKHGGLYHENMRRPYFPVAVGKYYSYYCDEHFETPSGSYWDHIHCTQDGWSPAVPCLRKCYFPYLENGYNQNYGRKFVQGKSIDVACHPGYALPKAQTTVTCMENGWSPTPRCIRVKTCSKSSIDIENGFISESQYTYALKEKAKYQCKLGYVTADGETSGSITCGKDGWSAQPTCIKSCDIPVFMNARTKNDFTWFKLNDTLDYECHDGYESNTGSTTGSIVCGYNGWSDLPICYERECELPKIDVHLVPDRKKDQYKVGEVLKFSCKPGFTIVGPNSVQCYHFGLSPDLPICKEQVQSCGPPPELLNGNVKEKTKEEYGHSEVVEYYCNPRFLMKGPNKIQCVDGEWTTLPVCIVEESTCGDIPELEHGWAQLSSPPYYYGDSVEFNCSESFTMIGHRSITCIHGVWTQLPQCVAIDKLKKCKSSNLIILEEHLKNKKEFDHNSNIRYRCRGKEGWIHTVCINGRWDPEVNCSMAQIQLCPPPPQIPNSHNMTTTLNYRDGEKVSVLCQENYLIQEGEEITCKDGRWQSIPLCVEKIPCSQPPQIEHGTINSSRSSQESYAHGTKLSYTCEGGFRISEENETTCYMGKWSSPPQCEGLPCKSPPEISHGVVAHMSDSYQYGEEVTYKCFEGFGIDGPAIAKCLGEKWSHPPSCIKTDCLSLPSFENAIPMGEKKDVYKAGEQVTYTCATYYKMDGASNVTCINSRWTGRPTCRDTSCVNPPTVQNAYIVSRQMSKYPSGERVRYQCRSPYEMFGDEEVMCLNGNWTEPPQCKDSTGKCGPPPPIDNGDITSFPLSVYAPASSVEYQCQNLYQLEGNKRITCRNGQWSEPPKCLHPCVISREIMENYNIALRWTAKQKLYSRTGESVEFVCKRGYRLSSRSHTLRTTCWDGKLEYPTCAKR

B1: v3 fHbp L149R mutant (L126R of SEQ ID NO: 17) (other)
chain: VAADIGTGLADALTAPLDHKDKGLKSLTLEDSIPQNGTLTLSAQGAEKTFKAGDKDNSLNTGKLKNDKISRFDFVQKIEVDGQTITLASGEFQIYKQNHSAVVALQIEKINNPDKTDSLINQRSFRVSGLGGEHTAFNQLPGGKAEYHGKAFSSDDPNGRLHYSIDFTKKQGYGRIEHLKTLEQNVELAAAELKADEKSHAVILGDTRYGSEEKGTYHLALFGDRAQEIAGSATVKIGEKVHEIGIAGKQ
notes: also called v3 equivalent of mutant #4
B1: binds (human factor H [1]).

B2: v3 fHbp S58V mutant (S32V of SEQ ID NO: 17) (other)
chain: B1 chain with S32V, R126L
notes: also called v3 equivalent of mutant #2
With B2 the “fold reduction of the SPR peak value against wild-type v3” value (human factor H [1]) was roughly 2 fold.

B3: wild-type v2 fHbp (strain 2996) (other)
chain: VAADIGAGLADALTAPLDHKDKSLQSLTLDQSVRKNEKLKLAAQGAEKTYGNGDSLNTGKLKNDKVSRFDFIRQIEVDGQLITLESGEFQIYKQDHSAVVALQIEKINNPDKIDSLINQRSFLVSGLGGEHTAFNQLPDGKAEYHGKAFSSDDAGGKLTYTIDFAAKQGHGKIEHLKTPEQNVELAAAELKADEKSHAVILGDTRYGSEEKGTYHLALFGDRAQEIAGSATVKIGEKVHEIGIAGKQ
notes: Recombinant purified protein; The exact construct used in SPR is not spelled out; also called v2 w.t
B3: binds (human factor H [2]).

B4: v2 fHbp mutant #3 + 'E313A' (other)
chain: B3 chain with S32V, L123R, E240A
notes: also called S32V + L123R + E240A
B4: no binding (human factor H [1]).

B5: v2 fHbp combined mutant #2 + #12 (other)
chain: B3 chain with S32V, L123R, V124I, S125G, G126D, L127I, G128A
notes: also called mutant #23; S32V + L123-G128 RIGDIA
For B5, the “fold reduction of the SPR peak value” (human factor H [1]) was roughly 8 fold.

B6: v2 fHbp mutant #4 (L149R) (other)
chain: B3 chain with L123R
notes: also called L123R
B6: binds (human factor H [2]).

B7: v2 fHbp mutant #2 (S58V) (other)
chain: B3 chain with S32V
notes: also called S32V
B7: binds (human factor H [2]).

— patent US20170008933A1 (GlaxoSmithKline, published 2017)
